# In FireProtDB (doi:10.1021/bi500238q):
# B1: Dihydrofolate reductase wild type, Q5KZ26 (protein)
# chain: MISHIVAMDENRVIGKDNRLPWHLPADLAYFKRVTMGHAIVMGRKTFEAIGRPLPGRDNVVVTRNRSFRPEGCLVLHSLEEVKQWIASRADEVFIIGGAELFRATMPIVDRLYVTKIFASFPGDTFYPPISDDEWEIVSYTPGGKDEKNPYEHAFIIYERKKAK
# Conditions: Geobacillus kaustophilus (strain HTA426), pH 7, Thermal, CD, Potassium Phosphate Buffer 10 mM, whole UniProt chain shown
protein,measurement,setting,value
B1,Tm,KCl 0.1 M,66.9 °C
same,Tm,KCl 0.2 M,67.9 °C
same,Tm,KCl 0.5 M,68.3 °C
same,Tm,KCl 1 M,70.1 °C
same,Tm,KCl 1.5 M,71.7 °C
same,Tm,KCl 2 M,73.8 °C
same,Tm,KF 0.1 M,66.8 °C
same,Tm,KF 0.2 M,67.5 °C
same,Tm,KF 0.5 M,68.6 °C
same,Tm,KF 1 M,71 °C
same,Tm,KF 1.5 M,73.8 °C
same,Tm,KF 2 M,74.6 °C
same,Tm,NaCl 0.1 M,66.8 °C
same,Tm,NaCl 0.2 M,67.2 °C
same,Tm,NaCl 0.5 M,67.6 °C
same,Tm,NaCl 1 M,69.5 °C
same,Tm,NaCl 1.5 M,71.5 °C
same,Tm,NaCl 2 M,73.4 °C
